In publication PMC4165444 (Biochemistry, 2014):

Target: the molecule itself
Assay: crystal structure

B1: Saccharomyces cerevisiae alcohol dehydrogenase I (enzyme, UniProt P00330 1-348, looked up)
chain: MSIPETQKGVIFYESHGKLEYKDIPVPKPKANELLINVKYSGVCHTDLHAWHGDWPLPVKLPLVGGHEGAGVVVGMGENVKGWKIGDYAGIKWLNGSCMACEYCELGNESNCPHADLSGYTHDGSFQQYATADAVQAAHIPQGTDLAQVAPILCAGITVYKALKSANLMAGHWVAISGAAGGLGSLAVQYAKAMGYRVLGIDGGEGKEELFRSIGGEVFIDFTKEKDIVGAVLKATDGGAHGVINVSVSEAAIEASTRYVRANGTTVLVGMPAGAKCCSDVFNQVVKSISIVGSYVGNRADTREALDFFARGLVKSPIKVVGLSTLPEIYEKMEKGQIVGRYVVDTSK
modifications: disulfide bond between Cys-277 residues of the two subunits of a dimer
Question: How did the “stoichiometry N” value turn out when B1 was run?
Answer: 4 subunits per oligomer
